The assay has as its target T1, human beta-dystroglycan extracellular domain (soluble) (human, UniProt Q14118 654-749).
T1 construct: extracellular domain; The expression construct of soluble human beta-DG is not described (only the mouse one); also called hBeta-DG; hbeta-DG
T1 sequence (looked up): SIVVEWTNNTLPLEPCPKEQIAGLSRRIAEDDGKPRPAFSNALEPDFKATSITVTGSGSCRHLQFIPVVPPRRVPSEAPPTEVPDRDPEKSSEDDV
Briefly: SPR, antibody on Protein G chip, beta-DG in flow, 1:1 model (table title says laminin-2; paragraph 445 says human beta-DG). The procedure:
Data was evaluated with a 1:1 binding model using the BIAevaluation software.
SPR was used as described above to analyze the kinetics of triAb binding to laminin-2 (Table N) or beta-DG (Table O).

B1: triAb 3423 (bispecific antibody)
light 1: EIVLTQSPDFLSVTPKEKVTLSCRASQSISNYLHWYQQKSDQSPKLLIKYASQSISGIPSRFSGSGSGTDFTLSINSVEAEDAATYFCQQSKSWPRTFGGGTKLEIKDKTHTEIVLTQSPDFLSVTPKEKVTLTCRASQSISNNLHWYQQKSDQSPKLLIKYASQSISGIPSRFSGSGSGTDFTLTINSVEAEDAATYFCQQSKSWPRTFGGGTKLEIKDKTHTRTVAAPSVFIFPPSDEQLKSGTASVVCLLNNFYPREAKVQWKVDNALQSGNSQESVTEQDSKDSTYSLSSTLTLSKADYEKHKVYACEVTHQGLSSPVTKSFNRGEC
heavy 1: EVQLVESGGGLVKPGGSLRLSCAASGFTFSSYTMSWVRQAPGKGLEWVASISSSGSNTYYPDSVKGRFTISRDNAKNNLYLQMNSLRAEDTALYYCARFDYGSSLDSWGQGTLLTVSSDKTHTEVQLVESGGGLVKPGGSLRLSCAASGFTFSSYTMSWVRQAPGKGLEWVASISSSGSNTYYPDSVKGRFTISRDNAKNNLYLQMNSLRAEDTALYYCARFDYGSSLDSWGQGTLLTVSSDKTHTASTKGPSVFPLAPSSKSTSGGTAALGCLVKDYFPEPVTVSWNSGALTSGVHTFPAVLQSSGLYSLSSVVTVPSSSLGTQTYICNVNHKPSNTKVDKKVEPKSCDKTHTCPPCPAPELLGGPSVFLFPPKPKDTLYITREPEVTCVVVDVSHEDPEVKFNWYVDGVEVHNAKTKPREEQYNNASRVVSVLTVLHQDWLNGKEYKCKVSNKALPAPIEKTISKAKGQPREPQVYTLPPCRDELTKNQVSLWCLVKGFYPSDIAVEWESNGQPENNYKTTPPVLDSDGSFFLYSKLTVDKSRWQQGNVFSCSVMHEALHNHYTQKSLSLSPG
heavy 2: QVQLVQSGAEVVKPGSSVKVSCEASGFTFTDSVITWVRQRPGQGLEWIGEIYPGSGNFYYNEKFQGRVTITADKSTSTAYMELSSLRSEDTAVYFCAMRRSSWGQGTLVTVSSASTKGPSVFPLAPSSKSTSGGTAALGCLVKDYFPEPVTVSWNSGALTSGVHTFPAVLQSSGLYSLSSVVTVPSSSLGTQTYICNVNHKPSNTKVDKKVEPKSCDKTHTCPPCPAPELLGGPSVFLFPPKPKDTLYITREPEVTCVVVDVSHEDPEVKFNWYVDGVEVHNAKTKPREEQYNNASRVVSVLTVLHQDWLNGKEYKCKVSNKALPAPIEKTISKAKGQPREPQVCTLPPSRDELTKNQVSLSCAVKGFYPSDIAVEWESNGQPENNYKTTPPVLDSDGSFFLVSKLTVDKSRWQQGNVFSCSVMHEALHNRFTQKSLSLSPG
light 2: DVVMTQTPLSLSVTPGQPASISCKSSQTIVHSNSKTYLEWYLQKPGQSPQLLIYKVSSRFSGVPDRFSGSGSGTDFTLKISRVEAEDVGVYYCFQGSHVPLTFGQGTKLEIKRTVAAPSVFIFPPSDEQLKSGTASVVCLLNNFYPREAKVQWKVDNALQSGNSQESVTEQDSKDSTYSLSSTLTLSKADYEKHKVYACEVTHQGLSSPVTKSFNRGEC
notes: Trivalent: CODV arm VH1/VL1 C3_Hu10, VH2/VL2 C21_Hu11
B1 displayed a Kd of 1.6 nM, a koff of 0.00433 s⁻¹ and a kon of 2.7e+06 M⁻¹ s⁻¹.

Source of the values: patent US20180237511A1 (Sanofi, published 2018).
